Assay results from the domain aggregation screens of Martell et al. (2025).

Test: soluble fraction after stress (log2 fold change); higher = more stays soluble; pooled small domains, quantitative proteomics
Conditions: stress: 75 degC
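Also: 20 min heating vs room temperature control held 20 min.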

Sequence	soluble fraction (log2)
HMAHLNYQTVDINALIRHSLQLVSQDAQSRGIALQFTPRPELTTISADPDRLNQVLLNLYLNAMQD	-0.607
HMAHLSPNDAARLVGVSRPLLNQILDEGRITFFETAGGHRKIKLAAVLAYIKERDEVAAQLAAART	-0.724
HMAHSDEAWSVARRVARELDKILDGAGPRRTALVRAAAELRLSTRQIYNLLARYRADRTVTSLLPRR	-0.27
HMAHSWEAIRVKLQQIIDEEDKTKPLNDDQIKEKLAEAGIPNLARRTVAKYRKLLNIPTARFRKR	-0.993
HMAIDINKIYSEIKKKIPNQDNHIKEILSIIWRDFNNYQNIKSRSILINGEKSSPKKEIFNIIEDNINIPV	0.0633
HMAIDPLLDKGYEQYDKGEFTEAVKSFNRAIEIDPKNAEAHFLRAMTYQGLALSKLAVADLEKAIV	0.0903
HMAIGDYYINASALNVRSGEGTNYRIIGALPQGQKVQVISENSGWSKINYNGQTGYIGTRYLSKTPV	-0.264
HMAIHTSVTEHGEHDLTVRMEMEQVFAIEMAVVSHEQATMLERTFKANAEAIYQKLLGVMTQEYP	-2.42
HMAISEEEATNLALERVPGASAQDLRIQLEFDDGVQKYEGDIIYDGKEYDFEIDANTGTFLEWSE	-0.0521
HMAISSADRIVAELRTWISGASPGTQLPSSRTLAARYGASPVTVQKALHTLAGMGLVEARPGAGTFVRRQS	-1.42
HMAITVPEGATLSDAAVLLKQAGAVRSADAFLTRAKVFGGSTPIKAGEFVIPVQASNKDILAILQGGK	0.0742
HMAKIATTVYEQIRTAILNGELSNSERLVEEDLAVSMGISRTPVREALRRLAAEGLVDVSPNRGARVAE	-0.27
HMAKINFTSDAIDIGMVTRNDIEMLSFYQNVLGLTKDMEIPFPGLGVVNKLSFGSGFIKILVL	0.0804
HMAKLGITQREQEVLQLLVTGKTYKEIAAELFISLPTVKTHVSNIYSKAKVRNRLELSNLINYI	-3.37
HMAKNYYEILGLKSDATLPEIKKAFKKLSKKFHPDKNRDDDGYFESMFKSINEAYQVLIDEDKRATFDSHH	-0.758
HMAKPAALLFEHRFDGMAEMRFRENIVKNDDGSYTYDEYFLSMLDRAGLEKIVQENMEVWIAYAKQ	-2.1
HMAKPVKSPLPGSVIKVAVKVGQQIKRGDLLLTLESMKMENSILAEKDGVVKNIHVQAGQSVMQDDLLLDI	-0.88
HMAKPVNISAEPYHYDPTRFRVTFELPRLSDQPRKRIRKVAPAGLDREQALAWAKRLEREVLHELLR	-1.08
HMAKVSVNIILKDGVDQTTFVNDVTSNTEVDLKNQLISLPQMVVLSVEEDYINTLKSHSSISILELDE	-0.296
HMALALDDLFDRYEQLQDQSLGDKTEEGQELRAMIRAYIEQEGLSVRVTRSTTNRELLELIEQEMEG	-0.306
HMALENTDLYAHLRLSHTASVPEIQAALSARVKHMPLQTWLLARKWLLHPRLRERYDGMWSVRFGA	-2.87
HMALGRTGEVYLPIPAGRAGHGKISITLQGALREVDAVTAGEALPRGTSVRVVDVAGNGVLLVEK	-0.206
HMALHDTLSYEEYLDLGLNGKADSAEKRELVAHALHLGRPNAKTLYKRLNMLQLNRKDVAALLEQ	0.097
HMALHLPTTTINGRQYYYFKSKEKITVYGLSKRLGLTRQEIVEHNPSAVDGIKRGSTLYFPVDEFAD	-2.12
HMALLKRQDEILMYLYTQNKWITGNELAQLFHVSLRTIRNDISFINTEKSNSVLSNRNKGYHIAKDFVYNE	-1.26
HMALPDSEKRQWLVDEVNERGLKLPDDVLEYLFARVGRSQAHLVDVIEKLDFESLAQSRKLTIPFVREVLK	-0.225

Sequence	soluble fraction (log2)
HMALPRYFFRTRENGAVLFKTPVNNHQNRLEMHQIAAINIRNETVKPLGDTVLTDEETELIADWMRERKTV	-0.782
HMALSVRNRMSDLLRMLGDGEFHRFENLFSLEEGRHGIVVTFLAMLELAKEQLVEISQGESLAPIYLKSLA	-1.05
HMAMDVKEVLLPGVGLRYEFDNSDGDRIGVIAKRSGDFEVVRYTAADRDAAQPMFRLTDEEADALAQILGA	0.224
HMAMDYYAIGQRIRKFRKAHDWSQEELAEKVEISTTHMSHIETGSTKLSLPVLVSLANVLDVRTDDLLF	-3.81
HMAMKFQDIVRQKRKELGLTQEQAARRLGVSPAAVSKWESGQSLPDTPLFAPLARLLHTDLNTLLSFE	-1.21
HMAMTQNVDLAGRIVFNEKKEEVFNFGKHKGRSVAEVFEKEPSYYDWMLKGDFPAETKQVLTALRLRGLS	-0.186
HMAMTRTEYLNQLKHYLKRLPHTDYEEAMDYFKEYFEEAGPENEAQVIQDLGNPKEAAYEILSQLL	-0.0595
HMANDNFPLKLGSKGPRVLQLKTMLIQSLSNDALPKGRSSDAFDSELEALLSRNNLPTVIDETNFRVLTK	-0.0514
HMANFGSILRNLRISRDITQSELAAKLGVSRSTVGMYETGAREPDFEAMEAIADTFNVDMDYLVGRSQ	-0.258
HMANLAQITKTNAVALALKDVGAYNSEDLMKFIDLDKVVLGEDGKPQLEDTINSLKESSPYLFQ	0.134
HMANMTAKQINMFGDKLSRDKDFQSYYIAKSGDSREQYAQDIKGKLLDPFYVNAWMPYLEKIGFVPS	0.0935
HMANPEFAGYINGKPYFGPTHQHRGVKMLGATHTRNPHPLVWDSIAESLANYDSRFRWSGGQIL	-0.853
HMANTAKVNVDTANLRETADENSKILKQLSLNDNLEVVEETGDWYKVKNSNVTGYVRKDLVTVEN	0.31
HMANTLDPMDLKQIISLHLDGFSNRKIGATLGISRNTVNTYMRLFSVSDYALKELLTLDNATLDKLFPS	-2.06
HMANYYEILGVKHDATEAEIKAAYKQAAKSAHPDAGGSNEKMQEVNAAWEVLGNAQKRAEYDARMA	0.173
HMAPAGGITRQDLFAWGLMGGEGSREKRQQLKKSLGLPSHLGTSGFLDALNLIATRDQVEALLHK	-0.564
HMAPAILTVQVKPDKIREIIGPGGKMIRMIQSETNTRVEVDDSGLVKIAAVSKEEGEAALKMVSDITME	0.331
HMAPDAPDGFVHRWIRAEMLGQEDKSNVHRRMQEGYELVRADEYPDSDLPVAEGRYAGIIGVGGLLLARF	-0.206
HMAPDDTAVWSAFIGWFRTAPDGPNPLGAYAAKLGEEGLDAAEVGRRMTVIVRLFAEKPEGAEVFYDRTYA	-2.66
HMAPDYYALLGVPRNATTAEVRKAFRGKALEQHPDRGGDEESFRLLSKAYDVLSDSERRKYYDRTG	-0.0151
HMAPEKLVHELVGLSLRAGNLDLLAATLSAHKTVLSKESTAEYVKAGLAIEPNHLPLRVLAEQDLGWS	-1.17
HMAPFVIQQGQDVRLISKGPGFAVSNDGKALTNAAEGQLARARTANGQTVSGIARQGGIIEIA	-0.0321
HMAPGIGDSKYFSHIYEMKHIDTIIDNDKGDRLIEHFEIQDTPFIFTKHWTSAFGFSKRQQEIITDYLSYF	0.12
HMAPGVHVEALLPYTAGSLVSQIREYGNVDAVEYRDTGILLQADVDERLAAQIMDQALEDPV	0.0715
HMAPLADQIVDLLKEHDGFLPLHDNSSPEDIRATVGTSKKAFKQAIGGLFREKRIVIGPTGIRLIS	-0.694
HMAPLATIHVSSLSQKPFYLYGTFEDRRGNHLFFLEQIMGENKSIPVAMPSSAINPKIHASLTPPKG	-0.494

Sequence	soluble fraction (log2)
HMAPLQDENGDLTFSYNGKTYTVNVNSEEDRNSFAEDFNKENGKKFSWFKERAGLQHYVFYDTEM	-0.00699
HMAPLVTLEADGNGAVKLSNLAGHSIREVAGALGGAGLSLIPVGSGTSWKQNPAPGTVLHSGDTVTVYF	0.177
HMAPPIQQQVESLMNSFAKIGVTVPMLESRLQHAMSAVTANELVMLRKIGASIRDGFATVAEQFPA	-1.14
HMAPPPPEGYIHRWIRESVMGFDDKKNLSARIREGFELVRAEEYPDYEAPTVMDGKHAGVIANGGLLLARF	-0.201
HMAPQQARAAKTRVKLLDAAATVVRRDGIQAMTLARVAEEAGVSKGGLLHHFGSKEELVTGMLEQ	-0.21
HMAPRASDALTERELDVLRVVADGASVAEAAEMLVVSRETVKKHLGNIYAKLGVHSKMQAVALLREEGV	-0.788
HMAPRKNIRLLRAAQDKAAAEGDHETVDAIRGQIAALIETLPVQYREEYLLQEKGRENGLKLAIENAAK	0.663
HMAPSLQISLKQAIITAQQQHPGSKALNADFDGARGTPRYVIETLLPTGELRELTIDAQSGQVMEDHPDR	0.234
HMAPSPEGAAILRESVESVARDQVDRVALTMTARGYTTAEIAAALMVDRSTISRRLYAMRDRYHAQQDNAQ	-0.526
HMAPSVNEVAWAQKIIDAHAEAAAAGKGLVVVDGKLIENLHVEEAKQLLSLSDAIAKNDASNG	0.0645
HMAPTGTDRQTPHTRDELYLVLSGTGTFVNGDARHPFGPGDALFVPAGAEHRFEDFSDDFRTWVVFYGAEG	-0.163
HMAPVVAILTRQLPLPQAQQLAGQTALVRVVKGGPGNEAELEFAGQNIQVKLPPGRQLTAGEMVTVAFALS	-0.762
HMAQASEPMLALIRLKWWEEQINSPVKGDSLPLLSQLNSHISAGYLSRSQVTSLIQRWQDYA	-0.983
HMAQFNELLFELRQDRKMTQEDLAKVLFVTSGTISNYENGVHLPDIEKLISLADFFGVTTDYLLG	-0.189
HMAQLKYEQIKSYLQAEAVKPESATRMPTVRELMRRFNVSLVTVNRALSELEHAKVIVRRQGAGIVAAQ	-0.662
HMAQLPADMSRVKSADVSDAQLREFVQKAQASGQTETQLFREFSRRGMPTNEINILRSRMVGLQNN	0.152
HMAQLPPTATARATSDVSGLTASAALRTLLEQGFVPQIHGSGKVSRQHPPAGTLLEPGSTIQLFLEPS	0.261
HMAQLSDMLTYLRKRKGLSQQELANTLKISRSAIGMYETGKREPDLETLEVFADFYNVDMNTLTGKA	-0.245
HMAQNILPGQKNAIKSLATSAGFSQQELDSYLSQNYGKTLNNLSQKEGASLISGLQDGSIKKP	0.988
HMAQPIPSGSDIREAREAAGMNLRDFARMVGGGAIGTWSHYETGKPIRVKSISPEVWQRVRDFILQHGK	-0.676
HMAQRAADEARTHEILGLLRQARAALDHGGTARAARLRASIAEKLPAAPALPAWFARQLEQVDSQLAELQD	-0.768
HMAQRFDLGDKLNPQSSEFEYLGTSSRTGVSTYRYKNVPTQLFFGRQIGDIVVGVRRGMITLTIYNL	0.0868
HMAQSTALVNLAQAEINKRGLTQTEVQARLSEEGINVNSISPAEYPKYQKQILSILDQMQKEKQLSKEV	0.287
HMAQVDAVQQVLQAFPALRSGQSQHLSQVVAALRQRGILTVGTKTTAWFAQWASVFQLLPLQVPNRIRYQS	0.0672
